Read-outs that look alike come from different tables or passages of the source.
B1: human-murine chimeric antibody 9E5-C (antibody, IgG1, V domains shown)
VH: QVQLQQPGADLVKPGASVKMSCKASGYILTTYWITWVKQRPGQGLEWIGDIHPGSGSTKYNEKFKSKATLTVDTSSSTAYMQLTRLSSEDSAVYYCARRDYWGQGTTLTVSS
VL: DVLMTQSPLSLPVSLGDQASISCRSSQNIVNSQGNTYLEWYLQKPGESPKLLIYKVTNRFSGVPDRFSGSGSGTDFTLKISRVEAEDLGVYYCFQASLVPWTFGGGTKLEIK
notes: also called 9E5 chimeric antibody
B2: humanized antibody hu9E5 (H1c heavy chain and L1a light chain) (antibody, human IgG1, kappa, V domains shown)
VH: QVQLVQSGAEVKKPGASVKVSCKASGYILTTYWITWVRQAPGQGLEWMGDIHPGSGSTKYNEKFKSRVTLTVDTSISTAYMELSRLRSEDTAVYYCARRDYWGQGTTVTVSS
VL: DIVMTQSPLSLPVTPGEPASISCRSSQNIVNSQGNTYLEWYLQKPGQSPQLLIYKVTNRFSGVPDRFSGSGSGTDFTLKISRVEAEDVGVYYCFQASLVPWTFGGGTKVEIKR
notes: also called Hu9E5-25

Columns and labels:
human CD40 (hCD40) [1] = biological target: T1, human CD40 (hCD40) (human, UniProt P25942 21-193); assay: ELISA blocking of hCD40/hCD40L binding
T1 sequence (P25942 21-193 limits assumed): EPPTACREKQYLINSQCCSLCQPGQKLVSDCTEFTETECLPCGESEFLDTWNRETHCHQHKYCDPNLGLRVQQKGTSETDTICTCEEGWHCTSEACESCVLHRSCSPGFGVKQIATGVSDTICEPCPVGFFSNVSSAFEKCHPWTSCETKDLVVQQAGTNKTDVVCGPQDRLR

[2] = biological target: T2, CD40 on HEK293-CD40 cells; assay: binding to HEK293-CD40 cells
T2 construct: whole, on cells
T2 sequence (P25942 21-277): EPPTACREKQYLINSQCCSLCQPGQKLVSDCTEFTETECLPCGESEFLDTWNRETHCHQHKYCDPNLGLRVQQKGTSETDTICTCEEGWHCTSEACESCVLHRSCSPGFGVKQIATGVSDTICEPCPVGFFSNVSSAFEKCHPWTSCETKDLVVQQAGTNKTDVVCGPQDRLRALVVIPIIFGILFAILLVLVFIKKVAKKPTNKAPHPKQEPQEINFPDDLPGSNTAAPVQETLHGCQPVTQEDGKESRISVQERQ

[3] = biological target: T2, CD40 on HEK293-CD40 cells; assay: binding to HEK293-CD40 cells; remark: listed apart in the source
human CD40 (hCD40) [4] = biological target: T1, human CD40 (hCD40); assay: ELISA blocking of hCD40/hCD40L binding; remark: listed apart in the source

Row | Binder | IC50 (human CD40 (hCD40) [1]) | EC50 [2] | EC50 [3] | IC50 (human CD40 (hCD40) [4])
1 | B1 | 0.122 µg/mL | 0.0333 µg/mL |  | 
2 | B2 |  |  | 0.14 µg/mL | 0.308 µg/mL

From patent US20240254248A1 (JIANGSU HENGRUI MEDICINE, published 2024)
